Where a chain is given by its changes, count along the chain named. In names and notes the source's numbering stands. Where two headings read alike, the source gives them in different places.
Assays:
[1] = target: p62 PH domain (Homo sapiens) (UniProt P32780); conditions: cited from earlier work
[2] = target: p62 (Tfb1) PH domain (Saccharomyces cerevisiae) (UniProt P32776); conditions: cited from earlier work
[3] = target: p62 PH domain (Homo sapiens) (UniProt P32780); conditions: cited from earlier work; remark: listed apart in the source
[4] = target: p62 PH domain (Homo sapiens) (UniProt P32780); conditions: cited from earlier work; remark: listed apart in the source
[5] = target: T1, PH domain (1–115) of TFIIH p62 subunit (S. cerevisiae, UniProt P32776 1-115); assay: pull-down; GST beads with GST-tagged Elf1 proteins mixed with purified PH domain of p62; 23 °C, 1 h; washed twice in 20 mM HEPES pH 7.4, 5% glycerol; SDS-PAGE; conditions: both partners purified
T1 construct: also called PH domain of p62; p62 PH domain; source: E. coli Rosetta 2(DE3), purified (Glutathione Sepharose, released by PreScission protease cleavage)
T1 sequence (looked up): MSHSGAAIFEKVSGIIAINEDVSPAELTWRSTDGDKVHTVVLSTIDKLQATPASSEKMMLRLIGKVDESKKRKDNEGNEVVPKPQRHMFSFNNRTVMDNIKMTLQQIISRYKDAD

[6] = target: T1, PH domain (1–115) of TFIIH p62 subunit; assay: BLI; Octet K2; GST-Elf1-CTD immobilised on GST-specific biosensors; PH domain of p62 at 30, 15, 7.5, 3.75 and 0 µM; 20 mM Tris-HCl pH 7.5, 5% glycerol, 1 mM DTT; association 2 min, dissociation 3 min; conditions: both partners purified

Sequence of p62 PH domain (Homo sapiens) (P32780 1-108): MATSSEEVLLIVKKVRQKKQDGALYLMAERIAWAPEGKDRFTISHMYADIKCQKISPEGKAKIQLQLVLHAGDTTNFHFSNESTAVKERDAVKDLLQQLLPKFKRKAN

Q: With UVSSA TIR (from UniProt Q2YD98) as the molecule, how does the Kd [1] read?
A: Its Kd is 71 nM.

Q: For Rad4 TIR (from UniProt P14736), which Kd [2] is on record?
A: Its Kd is 50 nM.

Q: For TFIIEα TIR (from UniProt P29083), which Kd [3] is on record?
A: The Kd was 45 nM.

Q: With DP1 TIR (from UniProt Q14186) as the molecule, how does the Kd [4] read?
A: Its Kd is 35300 nM.

B1: GST-Elf1 residues 85–113 (domain or fragment, S. cerevisiae, UniProt P36053 85-113, looked up)
chain: GSDTDDGDEGSDSDYESDSEQDAKTQNDG
notes: elongation factor-1 (Elf1), S. cerevisiae, residues 85-113 (truncated CTD); source: E. coli Rosetta 2(DE3), purified (Glutathione Sepharose, Superdex 200)
Q: Does B1 bind [5]?
A: Result: binds

B2: GST-Elf1-CTD (residues 85–145) (domain or fragment, S. cerevisiae, UniProt P36053 85-145, looked up)
chain: GSDTDDGDEGSDSDYESDSEQDAKTQNDGEIDSDEEEVDSDEERIGQVKRGRGALVDSDDE
notes: also called WT CTD; Elf1 C-terminal domain; source: E. coli Rosetta 2(DE3), purified (Glutathione Sepharose, Superdex 200)
Q: Which Kd [6] does the source give for B2 here?
A: The Kd was 3820 nM.

B3: GST-Elf1-CTD Y99A mutant (residues 85–145) (domain or fragment, S. cerevisiae, UniProt P36053 85-145, looked up)
chain: B2 chain with Y15A
notes: also called Y99A GST-Elf1-CTD; Y99A mutant CTD; source: E. coli Rosetta 2(DE3), purified (Glutathione Sepharose, Superdex 200)
Q: Which Kd [6] does the source give for B3 here?
A: The Kd was 7320 nM.

B4: GST-Elf1-CTD I115A (residues 85–145) (domain or fragment, S. cerevisiae, UniProt P36053 85-145, looked up)
chain: B2 chain with I31A
notes: also called I115A control; source: E. coli Rosetta 2(DE3), purified (Glutathione Sepharose, Superdex 200)
Q: Does B4 bind [5]?
A: Result: binds

B5: GST-Elf1 residues 85–122 (domain or fragment, S. cerevisiae, UniProt P36053 85-122, looked up)
chain: GSDTDDGDEGSDSDYESDSEQDAKTQNDGEIDSDEEEV
notes: source: E. coli Rosetta 2(DE3), purified (Glutathione Sepharose, Superdex 200)
Q: Does B5 bind [5]?
A: Result: binds

— article PMC11266705, “Elf1 promotes transcription-coupled repair in yeast by using its C-terminal domain to bind TFIIH” (Nature Communications, 2024)
